The chains are these.
B2: Human soluble IL-6R (receptor, UniProt P08887 20-358, looked up)
chain: LAPRRCPAQEVARGVLTSLPGDSVTLTCPGVEPEDNATVHWVLRKPAAGSHPSRWAGMGRRLLLRSVQLHDSGNYSCYRAGRPAGTVHLLVDVPPEEPQLSCFRKSPLSNVVCEWGPRSTPSLTTKAVLLVRKFQNSPAEDFQEPCQYSQESQKFSCQLAVPEGDSSFYIVSMCVASSVGSKFSKTQTFQGCGILQPDPPANITVTAVARNPRWLSVTWQDPHSWNSSFYRLRFELRYRAERSKTFTTWMVKDLQHHCVIHDAWSGLRHVVQLRAQEEFGQGEWSEWSPEAMGTPWTESRSPPAENEVSTPMQALTTNKDDDNILFRDSANATSLPVQD
notes: Soluble recombinant form; biotinylated in some assays; also called hIL-6R; human IL-6R

Test [1] has as its target B2. The test can be described thus: SPR Biacore 3000, IL-6R amine-coupled to CM5.
Description: (§1) Nanobodies were injected at 5 different concentrations between 1 and 50 nM. Flow rate was 45 μl/min in all experiments. Association and dissociation phase were 3 and 10 min, respectively. The chip was regenerated using Glycine/HCl pH 1.5.
The target in test [2] is B2. The test can be described thus: Alphascreen, inhibition of bio-IL-6 binding to IL-6R.
Description: (§2) Finally streptavidin donor beads were added and after 1 hour incubator the plate was read on the Envision microplate reader.
Test [3] deals with B2. The test can be described thus: inhibition of the IL-6/IL-6R interaction, summary table C-13.
Description: as §2
Test [4] addresses B2. The test can be described thus: competition for IL-6R, competitor reference Fab, summary table C-13.
The target in test [5] is B2. The test can be described thus: Alphascreen, 100 nM Nanobody, 0.4 nM bio-IL-6R; competitor: reference Fab.
The target in test [6] is B2. The test can be described thus: summary table C-13 of Nanobody characteristics, Kd on IL-6R; summary table C-13.
Test [7] addresses T1, Mouse IL-6R (mouse, UniProt P22272 20-364, limits assumed).
T1 construct: also called mouse sIL-6R
T1 sequence (looked up): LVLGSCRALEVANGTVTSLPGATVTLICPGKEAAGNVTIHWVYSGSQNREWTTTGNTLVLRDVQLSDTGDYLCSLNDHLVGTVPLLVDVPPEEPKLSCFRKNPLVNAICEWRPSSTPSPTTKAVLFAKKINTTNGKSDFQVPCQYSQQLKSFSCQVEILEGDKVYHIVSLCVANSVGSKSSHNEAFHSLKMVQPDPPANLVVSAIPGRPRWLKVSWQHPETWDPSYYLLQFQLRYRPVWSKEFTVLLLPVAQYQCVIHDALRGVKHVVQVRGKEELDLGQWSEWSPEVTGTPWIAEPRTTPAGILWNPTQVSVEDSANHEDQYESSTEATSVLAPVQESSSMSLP
The test can be described thus: ELISA: plate coated with 1 µg/ml mouse IL-6R, 500 nM Nanobody, anti-myc + anti-mouse-HRP.
Description: Detection was performed with anti-myc and anti-mouse-HRP as first and second antibody respectively.

For test [8], the target named is T2, PMP20A11.
T2 construct: also called IL6R20A11; IL6R300; not shown: c-myc and (His)6 tags
The test can be described thus: competitive binding ELISA, 0.05 nM IL6R20A11 pre-incubated with sIL-6R, free Nanobody captured on sIL-6R.

The target of test [9] is T2, PMP20A11. The test can be described thus: competition ELISA: IL6R20A11 (0.4 nM) pre-incubated with a series of recombinant sIL-6R; free IL6R20A11 captured on biotinylated human sIL-6R on neutravidin.
The target of test [10] is T3, Human membrane IL-6R on cells (human, UniProt P08887 20-468).
T3 sequence (looked up): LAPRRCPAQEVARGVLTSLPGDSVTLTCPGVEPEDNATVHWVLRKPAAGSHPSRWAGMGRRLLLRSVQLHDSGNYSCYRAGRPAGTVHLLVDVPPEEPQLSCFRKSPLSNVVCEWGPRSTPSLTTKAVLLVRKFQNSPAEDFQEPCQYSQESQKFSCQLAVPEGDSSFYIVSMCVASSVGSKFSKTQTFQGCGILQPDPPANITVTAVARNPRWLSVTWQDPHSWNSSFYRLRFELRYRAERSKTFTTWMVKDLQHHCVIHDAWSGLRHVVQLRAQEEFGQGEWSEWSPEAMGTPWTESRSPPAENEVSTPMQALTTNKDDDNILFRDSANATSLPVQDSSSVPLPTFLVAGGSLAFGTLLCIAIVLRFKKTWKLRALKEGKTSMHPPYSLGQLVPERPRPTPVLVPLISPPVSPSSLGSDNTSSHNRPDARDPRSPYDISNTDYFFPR
The test can be described thus: cell-based or functional assay.

In test [11] the target is T3, Human membrane IL-6R on cells. The test can be described thus: cell-based or functional assay. The source holds these as a separate data set.
For test [12] the target is unchanged. The test can be described thus: cell-based or functional assay. This is another data set of the same source.
In test [13] the target is B2. The test can be described thus: Biacore off-rate, periplasmic extract.
In test [14] the target is B2. The test can be described thus: summary table C-13 of Nanobody characteristics, Kd on IL-6R.
Description: as §1
In test [15] the target is B2. The test can be described thus: SPR Biacore 3000, IL-6R amine-coupled to CM5; second koff of IL6R02; the one that fits kon and Kd.
Description: as §1
Test [16] has as its target B2. The test can be described thus: SPR Biacore 3000, IL-6R amine-coupled to CM5; paired with the second koff of IL6R06 (r17c3).
Description: as §1
Test [17] has as its target B2. The test can be described thus: SPR Biacore 3000, IL-6R amine-coupled to CM5; first koff listed; a separate determination, not the one behind the Kd.
Test [18] addresses T3, Human membrane IL-6R on cells. The test can be described thus: cell-based or functional assay. This is another data set of the same source.
The target of test [19] is B2. The test can be described thus: Alphascreen, inhibition of bio-IL-6 binding to IL-6R. This is another data set of the same source.
Description: as §2
For test [20], the target named is T4, Human plasma sIL-6R (human, UniProt P08887 20-355, limits assumed).
T4 construct: also called plasma-derived human IL-6R
T4 sequence (looked up): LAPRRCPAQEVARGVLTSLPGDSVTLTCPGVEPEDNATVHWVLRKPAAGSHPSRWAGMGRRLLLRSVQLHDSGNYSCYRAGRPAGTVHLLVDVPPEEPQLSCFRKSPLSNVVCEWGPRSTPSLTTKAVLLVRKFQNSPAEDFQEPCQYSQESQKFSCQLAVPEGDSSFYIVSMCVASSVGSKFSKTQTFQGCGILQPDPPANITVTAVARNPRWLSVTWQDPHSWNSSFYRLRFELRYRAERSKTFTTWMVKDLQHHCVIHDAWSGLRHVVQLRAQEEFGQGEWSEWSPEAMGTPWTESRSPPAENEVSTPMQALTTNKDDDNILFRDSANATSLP
The test can be described thus: plasma potency ELISA, human plasma, IL-6 at EC50 (50 ng/mL).

Test [21] addresses T4, Human plasma sIL-6R. The test can be described thus: plasma potency ELISA, human plasma, IL-6 at EC95 (885 ng/mL).
Test [22] deals with T1, Mouse IL-6R. The test can be described thus: ELISA: plate coated with 1 µg/ml mouse IL-6R; concentration and detection of this control not told.
The next test concerns the target T5, Cyno plasma sIL-6R (cynomolgus monkey, UniProt A0A2K5WN54 60-396).
T5 construct: also called cynomolgus sIL-6R
T5 sequence: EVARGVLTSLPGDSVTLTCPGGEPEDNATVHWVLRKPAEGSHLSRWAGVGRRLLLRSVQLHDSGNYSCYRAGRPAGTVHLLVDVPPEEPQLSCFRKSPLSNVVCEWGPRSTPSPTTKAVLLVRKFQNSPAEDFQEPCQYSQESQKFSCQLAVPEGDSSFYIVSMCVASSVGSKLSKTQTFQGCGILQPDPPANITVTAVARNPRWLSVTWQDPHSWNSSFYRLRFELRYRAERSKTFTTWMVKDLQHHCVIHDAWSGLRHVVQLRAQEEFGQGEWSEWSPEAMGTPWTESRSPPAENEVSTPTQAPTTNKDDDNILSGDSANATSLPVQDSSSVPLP
The test can be described thus: plasma potency ELISA, cyno plasma + human IL-6 50 ng/mL; sIL-6R captured on BN-12, bound IL-6 detected; blocked ligand IL-6.

For test [23], the target named is T4, Human plasma sIL-6R. The test can be described thus: plasma potency ELISA, human plasma + human IL-6 50 ng/mL; sIL-6R captured on BN-12, bound IL-6 detected; blocked ligand IL-6.

B1: IL6R01 (VHH)
VHH: EVQLVESGGGLVQPGGSLRLSCAASGFPLDYYAIGWFRQAPGKEREGVSCISSSDGSTYYADSVKGRFTISRDNAKNTVYLQMNSLKPEDTAVYYCALVHTTAQATGVPQREYEYEWWGQGTQVTVSS
notes: also called PMP28E11; not shown: C-terminal c-myc and (His)6 tags
In the test with Human soluble IL-6R [1], B1 had a Kd of 0.4 nM, a koff of 0.00011 s⁻¹ and a kon of 262000 M⁻¹ s⁻¹. The molecule further registered an IC50 with Human soluble IL-6R [2] of 0.726 nM. Moreover, in the test with Human soluble IL-6R [3], the concentration for half-maximal inhibition (IC50) amounted to 0.73 nM. Further, in the test with Human soluble IL-6R [4], the “Ref Fab competition (%)” value was 49%. In the test with Human soluble IL-6R [5], the “Residual reference-Fab binding to IL-6R (%)” value was 49%. Further, the Kd in the test with Human soluble IL-6R [6] was 0.4 nM. Besides, the binding result with Mouse IL-6R [7] is “no binding (tested: 500 nM)”.

In the case of B2, in the test with PMP20A11 [8], the IC50 stood at 0.03 nM. The “IC50 (read off the curve)” value with PMP20A11 [9] is around 1 ng/mL.

B3: IL6R02 (VHH)
VHH: EVQLVESGGGLVQAGGSLRLSCAASGRTFSSYDMGWYRQAPGKEREFVAVISRSGSSTYYADSVKGRFTISRDNAKNTVYLQMNSLKPEDTAIYYCKAEVVAGDYDYWGQGTQVTVSS
notes: also called PMP30C11; not shown: C-terminal c-myc and (His)6 tags
On to B3, for which the “IC50 (nM), XG-1 cell proliferation” value in [10] was 31 nM. Further, the “IC50 (nM), TF1 cell proliferation” value in [11] stood at 94.7 nM. For the same molecule, the “IC50 (nM) XG-1” value in [12] amounted to 31 nM. The values for the koff with Human soluble IL-6R [13], with Human soluble IL-6R [1] and with Human soluble IL-6R [15] were 0.00294 s⁻¹, 0.00294 s⁻¹ and 0.00495 s⁻¹, respectively. Also, the Kd in the test with Human soluble IL-6R [1] and in the test with Human soluble IL-6R [14] was 5.9 nM each time. In the test with Human soluble IL-6R [1], this molecule showed a kon of 840000 M⁻¹ s⁻¹. Moreover, the concentration for half-maximal inhibition (IC50) with Human soluble IL-6R [2] and with Human soluble IL-6R [3] was 1.69 nM throughout. The “Ref Fab competition (%)” value in the test with Human soluble IL-6R [4] was determined as 86%. Further, the “Residual reference-Fab binding to IL-6R (%)” value in the test with Human soluble IL-6R [5] stood at 86%. In addition, the binding result in the test with Mouse IL-6R [7] is recorded as “no binding (tested: 500 nM)”.

B4: IL6R06 (VHH)
VHH: EVQLVESGGGLVQAGGSLRLSCAASGNIFDDNTMGWTWNRQPPGKQRELVAIIATDGSTNYADSVKGRFTISRDNAKNTVYLQMNSLKPEDTAVYYCNLFSLRLGRDYWGQGTQVTVSS
notes: also called PMP32E2; not shown: C-terminal c-myc and (His)6 tags
Take B4: the “IC50 (nM), XG-1 cell proliferation” value in test [10] is 42.1 nM. Also, in test [11], the “IC50 (nM), TF1 cell proliferation” value amounted to 138 nM. In addition, the “IC50 (nM) XG-1” value in test [12] stood at 42.1 nM. In addition, the results for the koff in the test with Human soluble IL-6R [13], with Human soluble IL-6R [1] and with Human soluble IL-6R [17] were 0.000886 s⁻¹, 0.00757 s⁻¹ and 0.000886 s⁻¹, respectively. In addition, the IC50 with Human soluble IL-6R [2] and with Human soluble IL-6R [3] was 1.21 nM throughout. Moreover, the equilibrium dissociation constant (Kd) with Human soluble IL-6R [14] and in the test with Human soluble IL-6R [16] was 7.1 nM throughout. The “Ref Fab competition (%)” value with Human soluble IL-6R [4] was 36%. In addition, the “Residual reference-Fab binding to IL-6R (%)” value with Human soluble IL-6R [5] turned out to be 36%. The molecule also registered a kon with Human soluble IL-6R [16] of 1.07e+06 M⁻¹ s⁻¹.

B5: Reference Fab (Fab, V domains shown)
VH: QVQLQESGPGLVRPSQTLSLTCTVSGYSITSDHAWSWVRQPPGRGLEWIGYISYSGITTYNPSLKSRVTMLRDTSKNQFSLRLSSVTAADTAVYYCARSLARTTAMDYWGQGSLVTVSS
VL: DIQMTQSPSSLSASVGDRVTITCRASQDISSYLNWYQQKPGKAPKLLIYYTSRLHSGVPSRFSGSGSGTDFTFTISSLQPEDIATYYCQQGNTLPYTFGQGTKVEIKR
notes: Built from RVLa and RVHf of EP 0628639; expressed in E. coli periplasm
For B5, the “IC50 (nM), XG-1 cell proliferation” value in test [10] came out at 6 nM. In test [11], the “IC50 (nM), TF1 cell proliferation” value was 9.2 nM. For the same molecule, in [18], the “IC50 (nM), TF-1 proliferation at 100 IU/mL IL-6” value stood at 6.26 nM. Also, the IC50 is 0.592 nM with Human soluble IL-6R [19], 0.55 nM with Human plasma sIL-6R [20] and 8.47 nM with Human plasma sIL-6R [21]. Also, in the test with Mouse IL-6R [22], the binding result is on record as “no binding (tested: not given)”. Besides, the results for the “IC50 (read off the curve)” value with Cyno plasma sIL-6R and with Human plasma sIL-6R [23] were around 0.1 nM and around 0.3 nM, respectively.

(Values after patent US20120077731A1 (Ablynx, published 2012).)
